Molecular target: cytochrome c oxidase (ferrocytochrome c:oxygen oxidoreductase), solubilized complex

cytochrome c with substitutions K8E/E69K/K72E/K86E/K87E (from UniProt P00004 1-105) (natural protein)
Activity in the cytochrome c oxidase reaction, % of WT: < 1%
Activity, s^−1, in the cytochrome c oxidase reaction (oxygen uptake by solubilized CcO with ascorbate and TMPD, 25 °C): < 1 s⁻¹

cytochrome c with substitutions E69K/K72E (from UniProt P00004 1-105) (natural protein)
Activity in the cytochrome c oxidase reaction, % of WT: 25%
Activity, s^−1, in the cytochrome c oxidase reaction (oxygen uptake by solubilized CcO with ascorbate and TMPD, 25 °C): 54 s⁻¹

Source: paper PMC10528150
